Measured values: the supplement of paper PMC10201428
± gives the standard deviation of the averaged measurements.

B1: library; a variant is named by its letters at N, in order (parent)
chain: ACATTTGTTGATACAACCATAAAATGATAATTACACCCATAAATTGATAATTATCACACCCANNNNNNNNNNNNNNCTCTGATCATAGTCAGACCAACATTGCTACGACCCGTATTCGCACCGACAC

Tests used:
[1] = variants of: B1; experiment: relative integration efficiency (T-RL orientation) vs wild-type transposon end (log2 (normalized fold change)); transposon end mutated: right end (5 bp flank + 75 bp right end); higher = more efficient transposition; conditions: with VchCAST RNA-guided transposition machinery (E. coli BL21(DE3) host, lacZ target)
Description: (§1)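 Pooled, barcoded VchCAST (Tn6677) mini-transposon donor libraries; each variable transposon-end sequence sits in a fixed pDonor mini-transposon context (10-bp barcode and cargo not included). Left- or right-end libraries were co-transformed with pEffector (TniQ-Cascade, TnsABC, lacZ crRNA, T7, 0.1 mM IPTG) into E. coli BL21(DE3) and grown 18 h at 37 C. T-LR and T-RL junction amplicons were sequenced; output/input barcode fold change was normalised to the mean of four wild-type barcodes and log2-transformed. Two biological replicates; zero-count/undetected variants carry floor values (-10 / -15), censored here. Barcode uncoupling by PCR recombination adds noise.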

[2] = variants of: B1; experiment: relative integration efficiency (T-LR orientation) vs wild-type transposon end (log2 (normalized fold change)); transposon end mutated: right end (5 bp flank + 75 bp right end); higher = more efficient transposition; conditions: with VchCAST RNA-guided transposition machinery (E. coli BL21(DE3) host, lacZ target)
Description: as §1

Row | Variant | relative integration efficiency (log2) [1] | relative integration efficiency (log2) [2]
1 | TAAATTAATATTGC | -0.319 ± 0.15 | 1.63 ± 0.083
2 | TAAATTCATATTGC | -0.149 ± 0.23 | 2.62 ± 0.096
3 | TAAATTCTATTTGC | -0.619 ± 0.18 | 2.22 ± 0.053
4 | TAAATTCTTATTGC | -0.485 ± 0.094 | 2.36 ± 0.24
5 | TAAATTGAAATTGC | -0.187 ± 0.13 | 1.06 ± 0.27
6 | TAAATTGAATAAGC | -0.554 ± 0.076 | 1.55 ± 0.079
7 | TAAATTGAATTTGC | -0.179 ± 0.17 | 1.16 ± 0.42
8 | TAAATTGACATTGC | -0.167 ± 0.015 | 0.353 ± 0.12
9 | TAAATTGAGATTGC | -0.3392 ± 0.00035 | 0.765 ± 0.23
10 | TAAATTGAGCGGGC | -0.15 ± 0.012 | 2.13 ± 0.086
11 | TAAATTGAGCTTGC | -0.264 ± 0.034 | 1.51 ± 0.32
12 | TAAATTGATAAACG | -0.208 ± 0.021 | 0.342 ± 0.21
13 | TAAATTGATAAAGC | -0.251 ± 0.025 | 0.6224 ± 0.0024
14 | TAAATTGATAATGC | 0.111 ± 0.029 | 0.354 ± 0.21
15 | TAAATTGATAATTA | 0.000518 ± 0.059 | 0.0298 ± 0.42
16 | TAAATTGATACTGC | -0.0852 ± 0.044 | 0.177 ± 0.018
17 | TAAATTGATAGGGC | 0.0268 ± 0.029 | 1.18 ± 0.057
18 | TAAATTGATAGGTA | -0.219 ± 0.01 | 1.09 ± 0.099
19 | TAAATTGATAGTGC | -0.0439 ± 0.022 | 0.754 ± 0.013

Row | Variant | relative integration efficiency (log2) [1] | relative integration efficiency (log2) [2]
20 | TAAATTGATATACC | -0.223 ± 0.13 | 0.207 ± 0.58
21 | TAAATTGATATACG C77G | 0.221 ± 0.0027 | 0.3 ± 0.0057
22 | TAAATTGATATAGC | -0.0924 ± 0.038 | 0.0501 ± 0.056
23 | TAAATTGATATCGC | 0.0222 ± 0.012 | -0.0692 ± 0.048
24 | TAAATTGATATGGC | 0.087 ± 0.065 | 0.317 ± 0.14
25 | TAAATTGATATGTA C77A | -0.158 ± 0.089 | 0.332 ± 0.19
26 | TAAATTGATATGTC | -0.17 ± 0.058 | 0.485 ± 0.25
27 | TAAATTGATATTAC | -0.14 ± 0.1 | 0.0276 ± 0.11
28 | TAAATTGATATTCC | -0.154 ± 0.11 | -0.146 ± 0.21
29 | TAAATTGATATTCG | -0.0179 ± 0.025 | -0.258 ± 0.12
30 | TAAATTGATATTGA | 0.138 ± 0.028 | 0.0994 ± 0.1
31 | TAAATTGATATTGA C77A | 0.00362 ± 0.0095 | 0.066 ± 0.4
32 | TAAATTGATATTGC | -0.0034 ± 0.1 | -0.0165 ± 0.24
33 | AAAATTGATATTGC | -0.0332 ± 0.012 | 0.998 ± 0.085
34 | GAAATTGATATTGC | -0.446 ± 0.11 | 2.2 ± 0.046
35 | CAAATTGATATTGC | -0.643 ± 0.087 | 1.861 ± 0.015
36 | TAAATTGATATTGC A1C | -0.117 ± 0.016 | -0.165 ± 0.27
37 | TAAATTGATATTGC A1G | -0.139 ± 0.068 | -0.251 ± 0.32
38 | TAAATTGATATTGC A1T | -0.0487 ± 0.062 | -0.0517 ± 0.26

Row | Variant | relative integration efficiency (log2) [1] | relative integration efficiency (log2) [2]
39 | TAAATTGATATTGC A3C | -0.109 ± 0.047 | -0.337 ± 0.37
40 | TAAATTGATATTGC A3G | 0.00116 ± 0.033 | 0.0517 ± 0.23
41 | TAAATTGATATTGC A3T | -0.114 ± 0.0076 | -0.195 ± 0.15
42 | TAAATTGATATTGC A11C | 0.342 ± 0.021 | -0.681 ± 0.56
43 | TAAATTGATATTGC A11G | -0.0551 ± 0.029 | -0.5 ± 0.17
44 | TAAATTGATATTGC A11T | 0.176 ± 0.055 | -0.678 ± 0.051
45 | TAAATTGATATTGC A13C | -0.236 ± 0.083 | -0.613 ± 0.75
46 | TAAATTGATATTGC A13G | 0.209 ± 0.06 | 0.173 ± 0.33
47 | TAAATTGATATTGC A13T | 0.116 ± 0.008 | 0.0619 ± 0.48
48 | TAAATTGATATTGC A15C | 0.297 ± 0.19 | 0.449 ± 0.3
49 | TAAATTGATATTGC A15G | -0.381 ± 0.0063 | -0.228 ± 0.029
50 | TAAATTGATATTGC A15T | -0.218 ± 0.022 | -0.624 ± 0.069
51 | TAAATTGATATTGC A16C | -0.0617 ± 0.0049 | 0.0173 ± 0.062
52 | TAAATTGATATTGC A16G | -0.119 ± 0.073 | -0.0536 ± 0.39
53 | TAAATTGATATTGC A16T | -0.582 ± 0.072 | -0.311 ± 0.2
54 | TAAATTGATATTGC A19C | -1.18 ± 0.12 | -1.16 ± 0.11
55 | TAAATTGATATTGC A19G | -0.155 ± 0.081 | -0.378 ± 0.051
56 | TAAATTGATATTGC A19T | -0.574 ± 0.03 | -0.267 ± 0.084
57 | TAAATTGATATTGC A21C | -0.283 ± 0.04 | -0.846 ± 0.23
